{"source": "patent US20250152742A1", "about": "“COMPOSITIONS AND METHODS FOR NEUROLOGICAL DISEASES” (Trames Bio, Inc., priority 2022, published 2025)", "molecules": {"B1": {"name": "CODA71: parental chimeric LGIC: human α7-nAChR ligand binding domain with GlyRα1 Cys-loop fused to human GlyRα1 ion pore domain (protein)", "chain": "MRCSPGGVWLALAASLLHVSLQGEFQRKLYKELVKNYNPLERPVANDSQPLTVYFSLSLLQIMDVDEKNQVLTTNIWLQMSWTDHYLQWNVSEYPGVKTVRFPDGQIWKPDILLYNSADERFDATFHTNVLVNSSGHCQYLPPGIFKSSCPMDLKNFPMDVQTCKLKFGSWSYGGWSLDLQMQEADISGYIPNGEWDLVGIPGKRSERFYECCKEPYPDVTFTVTMRRRMGYYLIQMYIPSLLIVILSWISFWINMDAAPARVGLGITTVLTMTTQSSGSRASLPKVSYVKAIDIWMAVCLLFVFSALLEYAAVNFVSRQHKELLRFRRKRRHHKSPMLNLFQEDEAGEGRFNFSAYGMGPACLQAKDGISVKGANNSNTTNPPPAPSKSPEEMRKLFIQRAKKIDKISRIGFPMAFLIFNMFYWIIYKIVRREDVHNQ", "modifications": "synthetic sequence of chimeric LGIC"}, "B2": {"name": "CODA806: engineered receptor: Y115D, L131Q in SEQ ID NO: 33 (Chemogenic receptor-11) (protein)", "chain": "B1 chain with Y115D, L131Q", "modifications": "synthetic sequence of chimeric LGIC"}, "B3": {"name": "COAD1056 (protein)", "chain": "B1 chain with R101F, Y115E, Y210W", "modifications": "synthetic sequence of chimeric LGIC"}, "B4": {"name": "COAD1055 (protein)", "chain": "B1 chain with R101W, Y115E, Y210W", "modifications": "synthetic sequence of chimeric LGIC"}}, "key": {"[1]": {"molecular_target": "SEQ ID NO: 33 (CODA71) versus wild type α7-nAChR (Homo sapiens, UniProt P36544, F159M/H163T/I152M/R155K/V154L/W156N/Y151P)", "assay": "Sensitivity of parental chimera SEQ ID NO: 33 to ligands compared with wild type α7-nAChR", "from_the_text": "To generate LGICs that conduct anion current following exposure to non-native small molecule agonists of the human α7-nAChR, chimeric ligand gated ion channel (LGIC) receptors comprising the ligand binding domain derived from the human α7 nicotinic acetylcholine receptor (α7-nAChR) and the chloride-conducting ion pore domain derived from the human GlyR1α were genetically engineered. […] SEQ ID NO:33 was approximate 2-fold less sensitive to nicotine and approximately 3-fold and 10-fold more sensitive to AZD-0328 and Facinicline/RG3487, respectively, than wild type. CODA71 is described in detail in WO2019104307 and WO2021035179, which are incorporated herein in their entireties."}, "[2]": {"tested_on": "engineered receptors and wildtype nAchRa7 receptor expressed in HEK293 cells", "assay": "Whole cell manual patch clamp electrophysiology, EC50, HEK293 cells", "assay_type": "cell-based, human", "conditions": "for EC50: ligand TC-5619, HEK293 cell line, read-out: Manual patch clamp based EC50, TC-5619", "method": "(§1) Using whole cell manual patch clamp electrophysiology in HEK293 cells, rat DRG neurons and rat hippocampal neurons, the EC50 of the various engineered receptors disclosed herein to Ach and non-native ligands was measured using the Hill equation with peak current measurements from escalating doses of ligand. The rheobase shift was also measured in rat DRG neurons, which reflects the efficacy of the receptors. To calculate the rheobase, first, the amount of current that can produce an action potential was determined. Then the ligand was added, followed by a step wise increase in the current injected up to 700 pA.\n(§2) For manual patch clamp experiments, Cells plated on coverslips were visualized at 10x and 40x on an inverted fluorescence microscope (Olympus). Recordings were made with an Axopatch 200B amplifier and Digidata 1550B (Molecular Devices) at RT using 3-6 MOhm glass patch electrodes (Sutter, BF150-86-10). Unless otherwise stated, recordings were made in extracellular solution (ECS) containing: 140 mM sodium chloride, 4 mM potassium chloride, 1 mM magnesium chloride, 2 mM calcium chloride, 10 mM HEPES, and 10 mM D-(+)-glucose (pH=7.3 with sodium hydroxide, osmolarity=305-315 mOsm). An 8-line reservoir (AutoMate Scientific) in combination with an 8-channel zero-dead-volume perfusion pencil (AutoMate Scientific) was used for perfusion. Data was acquired using pClamp software (Molecular Devices). Traces were either analyzed in Clampfit (Molecular Devices) or using custom Python code. Plotting and statistics were performed in GraphPad Prism.\nFor dose-response, ligand-induced currents were recorded in voltage clamp mode. For HEK cell experiments, recordings took place in the normal ECS with a cesium-based internal solution containing: 140 mM cesium chloride, 5 mM potassium fluoride, 2 mM Calcium chloride, 2 mM magnesium chloride, 10 mM HEPES, and 10 mM EGTA (pH=7.2 with cesium hydroxide, osmolarity=290-295 mOsm). For DRG neuron experiments, cells were patched in normal ECS and then switched to an NMDG-based ECS to prevent endogenous cation currents, containing: 145 mM N-methyl-D-glucamine, 4 mM potassium chloride, 0.5 mM magnesium chloride, 0.5 mM calcium chloride, 10 mM HEPES, and 10 mM D-(+)-glucose (pH=7.4 with hydrochloric acid, osmolarity=305-315mOsm). […] Capacitance and series resistance were compensated. Drugs tested include acetycholine chloride and other synthetic compounds. Drug doses were applied for 1-10 sec until the peak of the current was observed, and washes occurred for at least 2 min between dose applications. The holding current was subtracted from the peak to find the current amplitude.\nCell culture: HEK 293 cells were routinely subcultured in DMEM with 10% fetal bovine serum (ThermoFisher Scientific). […]"}, "[3]": {"tested_on": "engineered receptors expressed in rat DRG neurons", "assay": "Manual patch clamp ligand-induced chloride currents / EC50, rat DRG neurons", "assay_type": "cell-based", "conditions": "for EC50: ligand TC-5619, Rat DRG Neurons, read-out: Manual patch clamp based EC50, TC-5619", "method": "as §1, §2\nFor dose-response, ligand-induced currents were recorded in voltage clamp mode. For HEK cell experiments, recordings took place in the normal ECS with a cesium-based internal solution containing: 140 mM cesium chloride, 5 mM potassium fluoride, 2 mM Calcium chloride, 2 mM magnesium chloride, 10 mM HEPES, and 10 mM EGTA (pH=7.2 with cesium hydroxide, osmolarity=290-295 mOsm). […]"}, "[4]": {"conditions": "HEK293 cells and cultured rat DRG sensory neurons"}}, "note": "Substitutions are numbered along the chain they refer to. Names and notes keep the numbering of the source.", "data": [{"molecule": "B1", "values": [{"measurement": "sensitivity to ABT-126 compared with wild type α7-nAChR", "setting": "[1]; ligand ABT-126", "result": "approximately as sensitive"}, {"measurement": "fold more sensitive to AZD-0328 than wild type", "setting": "[1]; ligand AZD-0328", "result": "approximately 3 fold"}, {"measurement": "fold more sensitive to Facinicline/RG3487 than wild type", "setting": "[1]; ligand Facinicline/RG3487", "result": "~10", "unit": "fold"}, {"measurement": "sensitivity to TC-6987 compared with wild type α7-nAChR", "setting": "[1]; ligand TC-6987", "result": "approximately as sensitive"}, {"measurement": "agonist activity of TC-6987 on the receptor", "setting": "[1]; ligand TC-6987, similar to wild type", "result": "partial agonist activity"}, {"measurement": "sensitivity to acetylcholine compared with wild type α7-nAChR", "setting": "[1]; ligand acetylcholine", "result": "approximately as sensitive"}, {"measurement": "fold less sensitive to nicotine than wild type", "setting": "[1]; ligand nicotine", "result": "~2", "unit": "fold"}]}, {"molecule": "B2", "values": [{"measurement": "sensitivity to RG-3487 compared to wildtype nAchRa7 receptor", "setting": "[2]; [4]", "result": "way more sensitive to RG-3487"}, {"measurement": "sensitivity to acetylcholine compared to wildtype nAchRa7 receptor", "setting": "[2]; [4]", "result": "essentially insensitive to acetylcholine"}, {"measurement": "chloride current on application of RG-3487 (SA-2)", "setting": "[3]; cultured adult rat DRG neurons, not observed in non-transduced cells, FIG. 3", "result": "generated chloride current in a dose dependent manner"}]}, {"molecule": "B3", "values": [{"measurement": "EC50", "setting": "[2]", "result": 0.096, "unit": "µM"}, {"measurement": "EC50", "setting": "[3]", "result": 0.116, "unit": "µM"}]}, {"molecule": "B4", "values": [{"measurement": "EC50", "setting": "[2]", "result": 0.016, "unit": "µM"}, {"measurement": "EC50", "setting": "[3]", "result": 0.056, "unit": "µM"}]}]}
